B1: B. maritima: methyl halide transferase from Batis maritima, SEQ ID NO: 3 (protein, listed as Batis maritima)
chain: MSTVANIAPVFTGDCKTIPTPEECATFLYKVVNSGGWEKCWVEEVIPWDLGVPTPLVLHLVKNNALPNGKGLVPGCGGGYDVVAMANPERFMVGLDISENALKKARETFSTMPNSSCFSFVKEDVFTWRPEQPFDFIFDYVFFCAIDPKMRPAWGKAMYELLKPDGELITLMYPITNHEGGPPFSVSESEYEKVLVPLGFKQLSLEDYSDLAVEPRKGKEKLARWKKMNN

Key:
RAD50Δ mutant = assay type: cell-based, S. cerevisiae; conditions: RAD50Δ mutant compared with W303a, OD600 at 24 hours
Source text: (§1) FIG. 11A-D: Methyl iodide production in recombinant S. cerevisiae. FIG. 11A. CH3I production pathway. The B. maritima MHT is expressed with a N-terminal vacuole targeting tag. The […] MHT methylates iodide ions using SAM as a methyl donor. FIG. 11B, CH3I measured in culture headspace over time. Activity on glucose-grown cells is shown. FIG. 11C, CH3I yields in grams per liter of culture per day. Values for the culturable red algae E. muricata are taken from the literature. Yields from B. maritima MHT-expressing E. coli and S. cerevisiae are calculated by comparison to standard curves. FIG. 11D, CH3I toxicity in yeast. Exponential phase cultures were diluted to an OD600 of 0.05 and commercially available CH3I was added. OD600 was measured at 24 hours of growth. The W303a lab strain is shown in filled boxes, the DNA methylation-sensitive RAD50Δ mutant is shown in open boxes.
(§2) Individual colonies were inoculated in YP media with 2% glucose and grown overnight. Cultures were diluted to an OD600 of 0.05 and methyl iodide was added to the specified amount. […] OD600 was measured by spectrometry with YP media used as a blank. Each data point was performed in triplicate. The RAD50Δ mutant was obtained from the Saccharomyces Genome Deletion Project (Invitrogen).

S. cerevisiae W303a = experiment: Methyl iodide toxicity assay in yeast; assay type: cell-based; conditions: W303a lab strain, OD600 at 24 hours of growth, commercially available CH3I added
Source text: as §1, §2

S. cerevisiae W303 = experiment: Methyl iodide production by vacuole-targeted MHT in yeast; assay type: cell-based; conditions: N-terminal carboxypeptidase Y tag versus cytosolic enzyme, vector pCM190
Source text: In one approach, for illustration and not limitation, the coding sequence of B. maritima methylchloride transferase (MCT) is synthesized and cloned into a high copy vector under the control of a tet-repressible CYC promoter (plasmid pCM190, Gari et al, 1997, Yeast 13:837-48.). The MCT coding sequence is fused to a N-terminal peptide domain from carboxypeptidase Y known to target pendant proteins to the yeast vacuole (amino acid sequence: […] (SEQ ID NO:1), Valls et al., 1990, J Cell Biol. 111:361-8.) This expression system is transformed into S. cerevisiae strain W303a. […] Cultures are grown at 30 degrees with 250 rpm shaking, and methyl iodide production assayed at specified intervals via GC-MS. […] Oven temperature is programmed from 50 degrees (1 min) to 60 degrees (10 degrees/min).
We fused a 16 amino acid vacuolar targeting tag ([…]) from yeast carboxypeptidase Y to the N-terminus of the B. maritima MCT and expressed the enzyme from the vector pCM190. […] We next expressed the cytosolic and vacuolar targeted enzymes in a VPS33A background, which is unable to form functional vacuoles.

E. coli [1] = conditions: library of 89 genes, 100 mM sodium halide salt, headspace GC-MS
Description: Methyl halide production was sampled by analyzing the headspace gas using GC-MS (Supplementary Information).
Bacteria carrying MHT expression vectors were inoculated from freshly streaked plates and grown overnight. Cells were diluted 100-fold into media containing 1 mM IPTG and 100 mM appropriate sodium halide salt. Culture tubes were sealed with a rubber stopper and grown at 37 degrees for 3 hours. Yeast carrying MHT expression vectors were streaked on uracil dropout plates from freezer stocks (15% glycerol) and grown for 48 hours. Individual colonies were inoculated into 2 mL of synthetic complete uracil dropout media and grown overnight at 30 degrees. Cultures were next inoculated into 100 mL fresh synthetic complete uracil dropout media and grown for 24 hours. […] 10 mL of this concentrated culture was aliquoted into 14 mL culture tubes and sealed with a rubber stopper. Cultures were grown at 30 degrees with 250 rpm shaking.

E. coli [2] = tested on: E. coli
Description: Methyl halide production can be measured by gas chromatography. In the experiments described below an Agilent gas chromatography/mass spectrometry (GC/MS) system was used. Most often the “AIR.U” tune file, uses an ionization voltage of 1341. In some experiments an ionization voltage of about 1250 was used. A solvent delay of 0 was set and the scan parameters set to 15-100 MW. The injection port and column were preset to 50° C. The sample to be tested was mixed by shaking for a few seconds. 100 μL of the headspace gas was extracted with a gas-tight syringe. The sample gas was manually injected into the GCMS injection port. The GCMS program was started with the following settings: 1:00 at 50° C.; a ramp of 10° C. per min to 70° C. (the sample typically came off at ˜52° C.); 1:00 at 70° C. The column was then cleaned (ramp to 240° C. for 2 minutes). The sample peak was identified by extracting the GC peak corresponding to 50MW (−0.3, +0.7). This peak was integrated to produce the “GC 50MW” data.
For each strain a single colony was picked and grown overnight (10-14 hrs) in 20 mL of LB miller in a 30 mL glass test tube with aeration (a loose cap) at 37 C and 250 rpm shaking. The culture was spun down in a swinging bucket centrifuge for 5 min @3000×g. […]

Molecule | sensitivity to methyl iodide (RAD50Δ mutant) | level up to which yeast were resistant to deleterious methylating effects of methyl iodide (S. cerevisiae W303a) [µg/mL] | increase in methyl iodide production rate by targeting to the vacuole (S. cerevisiae W303) [%] | methyl halide activity on chloride, bromide and iodide (E. coli [1]) | methyl bromide production (E. coli [2]; 165 mM NaBr, 100 uM IPTG, 1.5 hours, headspace GC/MS) | specificity of methyl halide production (E. coli [2]; methyl bromide versus methyl iodide)
CI [methyl iodide] | increased sensitivity | > 5000 |  |  |  | 
B1 |  |  | 50 | highest activity of all genes on each ion | best | significant specificity for methyl bromide production
